PMC5856775
Blank lines part the entries; values can stand above or below the substance they belong to.

How the values were obtained:
RacGAP1 = RacGAP1 (UniProt Q9H0H5); test: Strep-tactin pull-down from HeLa lysate, label-free quantification mass spectrometry; settings: three biological repeats measured in three technical repeats each; -log10(p-value) est. 2.8; read off a plot
HSP90AB4P = test: as above; settings: three biological repeats measured in three technical repeats each; -log10(p-value) est. 1.0; read off a plot
COPS7A = test: as above; settings: three biological repeats measured in three technical repeats each; -log10(p-value) est. 2.2; read off a plot
UBL4A = test: as above; settings: three biological repeats measured in three technical repeats each; -log10(p-value) est. 1.4; read off a plot
SMG8 = test: as above; settings: three biological repeats measured in three technical repeats each; -log10(p-value) est. 2.2; read off a plot
TUBB2B = test: as above; settings: three biological repeats measured in three technical repeats each; -log10(p-value) est. 3.6; read off a plot
TUBA3C = test: as above; settings: three biological repeats measured in three technical repeats each; -log10(p-value) est. 4.2; read off a plot
NUP35 = test: as above; settings: three biological repeats measured in three technical repeats each; -log10(p-value) est. 3.6; read off a plot
TUBB4A = test: as above; settings: three biological repeats measured in three technical repeats each; -log10(p-value) est. 3.8; read off a plot
FAM91A1 = test: as above; settings: three biological repeats measured in three technical repeats each; -log10(p-value) est. 3.0; read off a plot
BAX = test: as above; settings: three biological repeats measured in three technical repeats each; -log10(p-value) est. 1.7; read off a plot
GPHN = test: as above; settings: three biological repeats measured in three technical repeats each; -log10(p-value) est. 1.3; read off a plot
TUBA1A = test: as above; settings: three biological repeats measured in three technical repeats each; -log10(p-value) est. 3.7; read off a plot
KIF18B = KIF18B (UniProt Q86Y91); test: as above; settings: three biological repeats measured in three technical repeats each; -log10(p-value) est. 1.5; read off a plot
Sequence of UniProt Q86Y91 (Q86Y91 whole entry, looked up): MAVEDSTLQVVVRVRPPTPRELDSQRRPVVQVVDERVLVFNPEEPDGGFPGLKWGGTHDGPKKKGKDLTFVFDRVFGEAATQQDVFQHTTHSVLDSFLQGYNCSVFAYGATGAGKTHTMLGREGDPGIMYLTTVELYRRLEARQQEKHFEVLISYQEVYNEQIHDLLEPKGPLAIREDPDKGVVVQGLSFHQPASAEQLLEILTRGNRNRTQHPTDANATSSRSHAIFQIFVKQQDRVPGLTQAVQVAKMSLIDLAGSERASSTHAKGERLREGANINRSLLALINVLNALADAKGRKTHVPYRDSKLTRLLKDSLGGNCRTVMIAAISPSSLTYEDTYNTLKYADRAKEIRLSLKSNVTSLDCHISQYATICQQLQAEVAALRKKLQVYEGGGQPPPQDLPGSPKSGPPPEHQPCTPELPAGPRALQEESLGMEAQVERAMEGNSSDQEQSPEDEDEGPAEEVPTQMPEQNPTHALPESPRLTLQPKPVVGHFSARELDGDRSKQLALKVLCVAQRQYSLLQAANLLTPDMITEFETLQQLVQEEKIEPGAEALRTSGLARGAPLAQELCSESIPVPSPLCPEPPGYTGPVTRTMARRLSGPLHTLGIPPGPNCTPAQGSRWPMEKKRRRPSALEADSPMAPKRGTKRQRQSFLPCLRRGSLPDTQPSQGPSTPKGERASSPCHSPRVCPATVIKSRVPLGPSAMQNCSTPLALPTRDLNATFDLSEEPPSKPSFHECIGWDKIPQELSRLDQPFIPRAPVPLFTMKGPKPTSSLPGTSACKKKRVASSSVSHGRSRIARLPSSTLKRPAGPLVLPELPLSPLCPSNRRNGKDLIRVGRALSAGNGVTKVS

TIMM13 = test: as above; settings: three biological repeats measured in three technical repeats each; -log10(p-value) est. 2.6; read off a plot
EIF1 = test: as above; settings: three biological repeats measured in three technical repeats each; -log10(p-value) est. 1.2; read off a plot
LYST = test: as above; settings: three biological repeats measured in three technical repeats each; -log10(p-value) est. 0.97; read off a plot
Nbla03646 = test: as above; settings: three biological repeats measured in three technical repeats each; -log10(p-value) est. 2.1; read off a plot
ANAPC2 [1] = test: Strep-tactin pull-down, label-free quantification mass spectrometry; settings: complexes SUMOylated in vitro, HeLa lysate added; three biological repeats measured in three technical repeats each
CDC16 [2] = test: as above; settings: complexes SUMOylated in vitro, HeLa lysate added; three biological repeats measured in three technical repeats each
ANAPC10 [3] = test: as above; settings: complexes SUMOylated in vitro, HeLa lysate added; three biological repeats measured in three technical repeats each
ANAPC1 [4] = test: as above; settings: complexes SUMOylated in vitro, HeLa lysate added; three biological repeats measured in three technical repeats each
CDC27 [5] = test: as above; settings: complexes SUMOylated in vitro, HeLa lysate added; three biological repeats measured in three technical repeats each
ANAPC15 [6] = test: as above; settings: complexes SUMOylated in vitro, HeLa lysate added; three biological repeats measured in three technical repeats each
CDC26 [7] = test: as above; settings: complexes SUMOylated in vitro, HeLa lysate added; three biological repeats measured in three technical repeats each
ANAPC13 [8] = test: as above; settings: complexes SUMOylated in vitro, HeLa lysate added; three biological repeats measured in three technical repeats each
ANAPC16 [9] = test: as above; settings: complexes SUMOylated in vitro, HeLa lysate added; three biological repeats measured in three technical repeats each
CDC23 [10] = test: as above; settings: complexes SUMOylated in vitro, HeLa lysate added; three biological repeats measured in three technical repeats each
ANAPC5 [11] = test: as above; settings: complexes SUMOylated in vitro, HeLa lysate added; three biological repeats measured in three technical repeats each
ANAPC2 [12] = test: Strep-tactin pull-down, mass spectrometry spectral counting; settings: complexes SUMOylated in vitro, HeLa lysate added; three biological repeats measured in three technical repeats each
CDC16 [13] = test: as above; settings: complexes SUMOylated in vitro, HeLa lysate added; three biological repeats measured in three technical repeats each
ANAPC10 [14] = test: as above; settings: complexes SUMOylated in vitro, HeLa lysate added; three biological repeats measured in three technical repeats each
ANAPC1 [15] = test: as above; settings: complexes SUMOylated in vitro, HeLa lysate added; three biological repeats measured in three technical repeats each
CDC27 [16] = test: as above; settings: complexes SUMOylated in vitro, HeLa lysate added; three biological repeats measured in three technical repeats each
ANAPC15 [17] = test: as above; settings: complexes SUMOylated in vitro, HeLa lysate added; three biological repeats measured in three technical repeats each
CDC26 [18] = test: as above; settings: complexes SUMOylated in vitro, HeLa lysate added; three biological repeats measured in three technical repeats each
ANAPC13 [19] = test: as above; settings: complexes SUMOylated in vitro, HeLa lysate added; three biological repeats measured in three technical repeats each
ANAPC16 [20] = test: as above; settings: complexes SUMOylated in vitro, HeLa lysate added; three biological repeats measured in three technical repeats each
CDC23 [21] = test: as above; settings: complexes SUMOylated in vitro, HeLa lysate added; three biological repeats measured in three technical repeats each
ANAPC5 [22] = test: as above; settings: complexes SUMOylated in vitro, HeLa lysate added; three biological repeats measured in three technical repeats each

Sequence of UniProt Q9H0H5 (Q9H0H5 whole entry, looked up): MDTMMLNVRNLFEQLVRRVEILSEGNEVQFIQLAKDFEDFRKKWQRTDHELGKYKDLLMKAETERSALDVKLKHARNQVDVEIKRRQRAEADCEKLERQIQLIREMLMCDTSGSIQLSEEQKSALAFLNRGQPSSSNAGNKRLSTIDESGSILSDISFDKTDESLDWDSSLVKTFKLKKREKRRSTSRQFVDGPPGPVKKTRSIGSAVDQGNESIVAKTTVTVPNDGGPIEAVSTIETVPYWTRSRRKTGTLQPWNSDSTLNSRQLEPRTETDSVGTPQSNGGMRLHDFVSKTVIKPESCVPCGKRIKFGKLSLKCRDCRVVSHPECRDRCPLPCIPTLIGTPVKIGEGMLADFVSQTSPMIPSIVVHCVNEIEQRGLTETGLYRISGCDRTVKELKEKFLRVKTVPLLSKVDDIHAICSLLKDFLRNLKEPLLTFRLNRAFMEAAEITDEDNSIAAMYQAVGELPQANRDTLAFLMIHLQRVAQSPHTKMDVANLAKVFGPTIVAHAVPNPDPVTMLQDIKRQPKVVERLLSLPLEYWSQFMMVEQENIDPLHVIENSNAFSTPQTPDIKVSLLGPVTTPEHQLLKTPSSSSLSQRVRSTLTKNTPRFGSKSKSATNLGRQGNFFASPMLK

other: Ratio (log2) of protein intensities, wild-type APC4 / mutant APC4 (RacGAP1): -1.6 log2
other: Ratio (log2) of protein intensities, wild-type APC4 / mutant APC4 (HSP90AB4P): 2.5 log2
other: Ratio (log2) of protein intensities, wild-type APC4 / mutant APC4 (COPS7A): 1 log2
other: Ratio (log2) of protein intensities, wild-type APC4 / mutant APC4 (UBL4A): -1.4 log2
other: Ratio (log2) of protein intensities, wild-type APC4 / mutant APC4 (SMG8): -1 log2
other: Ratio (log2) of protein intensities, wild-type APC4 / mutant APC4 (TUBB2B): 4.3 log2
other: Ratio (log2) of protein intensities, wild-type APC4 / mutant APC4 (TUBA3C): -1.9 log2
other: Ratio (log2) of protein intensities, wild-type APC4 / mutant APC4 (NUP35): -1.4 log2
other: Ratio (log2) of protein intensities, wild-type APC4 / mutant APC4 (TUBB4A): -1 log2
other: Ratio (log2) of protein intensities, wild-type APC4 / mutant APC4 (FAM91A1): 2.4 log2
other: Ratio (log2) of protein intensities, wild-type APC4 / mutant APC4 (BAX): 1.3 log2
other: Ratio (log2) of protein intensities, wild-type APC4 / mutant APC4 (GPHN): -1.7 log2
other: Ratio (log2) of protein intensities, wild-type APC4 / mutant APC4 (TUBA1A): -1.5 log2
other: Ratio (log2) of protein intensities, wild-type APC4 / mutant APC4 (KIF18B): 1.8 log2
other: Ratio (log2) of protein intensities, wild-type APC4 / mutant APC4 (TIMM13): -1.8 log2
other: Ratio (log2) of protein intensities, wild-type APC4 / mutant APC4 (EIF1): -1.6 log2
other: Ratio (log2) of protein intensities, wild-type APC4 / mutant APC4 (LYST): 3.8 log2
other: Ratio (log2) of protein intensities, wild-type APC4 / mutant APC4 (Nbla03646): -2.9 log2
Substance: SUMOylated recombinant APC/C containing APC4 wild type (from UniProt Q9UJX5;P55854;Q9UJX3;Q9NYG5;Q9H1A4;Q9UJX6;P30260;Q9UJX4;Q9UJX2;P60006) K772R; K798R

other: LFQ ratio (WT/mutant, log2) (ANAPC2 [1]): 0.4 log2
other: LFQ ratio (WT/mutant, log2) (CDC16 [2]): 0.34 log2
other: LFQ ratio (WT/mutant, log2) (ANAPC10 [3]): 0.44 log2
other: LFQ ratio (WT/mutant, log2) (ANAPC1 [4]): 0.35 log2
other: LFQ ratio (WT/mutant, log2) (CDC27 [5]): 0.36 log2
other: LFQ ratio (WT/mutant, log2) (ANAPC15 [6]): 0.4 log2
other: LFQ ratio (WT/mutant, log2) (CDC26 [7]): 0.49 log2
other: LFQ ratio (WT/mutant, log2) (ANAPC13 [8]): 0.25 log2
other: LFQ ratio (WT/mutant, log2) (ANAPC16 [9]): 0.37 log2
other: LFQ ratio (WT/mutant, log2) (CDC23 [10]): 0.33 log2
other: LFQ ratio (WT/mutant, log2) (ANAPC5 [11]): 0.22 log2
other: MS/MS ratio (WT/mutant, log2) (ANAPC2 [12]): 0.08 log2
other: MS/MS ratio (WT/mutant, log2) (CDC16 [13]): 0.23 log2
other: MS/MS ratio (WT/mutant, log2) (ANAPC10 [14]): 0.34 log2
other: MS/MS ratio (WT/mutant, log2) (ANAPC1 [15]): 0.26 log2
other: MS/MS ratio (WT/mutant, log2) (CDC27 [16]): 0.24 log2
other: MS/MS ratio (WT/mutant, log2) (ANAPC15 [17]): 0.2 log2
other: MS/MS ratio (WT/mutant, log2) (CDC26 [18]): 0.17 log2
other: MS/MS ratio (WT/mutant, log2) (ANAPC13 [19]): 0.12 log2
other: MS/MS ratio (WT/mutant, log2) (ANAPC16 [20]): 0.19 log2
other: MS/MS ratio (WT/mutant, log2) (CDC23 [21]): 0.31 log2
other: MS/MS ratio (WT/mutant, log2) (ANAPC5 [22]): 0.17 log2
Substance: Strep-tagged APC4 wild type of the recombinant APC/C, SUMOylated in vitro (from UniProt Q9UJX5;P55854) K772R; K798R
